The supplement of paper PMC9112550, “Optimization of the antimicrobial peptide Bac7 by deep mutational scanning” (BMC Biology, 2022)

What follows are sequences tested on Escherichia coli TOP10 (assay: shrunken log2 fold change of peptide-encoding DNA abundance (4.5 h post-induction vs induction); higher = less antimicrobial activity (less host growth inhibition)). Conditions: time post-induction: 4.5 h; library: site-saturation at positions 5, 18, 19, 20.
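Further: peptides expressed intracellularly from a pBAD plasmid library in pooled LB shake-flask culture, induced with 0.3% L-arabinose, DNA abundance read by NGS, three biological replicates, DESeq2 with apeglm shrinkage.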

Sequence | shrunken log2 fold change
RRIRFRPPRLPRPRPRPGYEPRP | -0.16
RRIRFRPPRLPRPRPRPGYHPRP | -1.45
RRIRFRPPRLPRPRPRPGYYPRP | -0.195
RRIRFRPPRLPRPRPRPHAMPRP | 0.203
RRIRFRPPRLPRPRPRPHCMPRP | -0.371
RRIRFRPPRLPRPRPRPHDCPRP | -0.0297
RRIRFRPPRLPRPRPRPHEEPRP | 0.00592
RRIRFRPPRLPRPRPRPHENPRP | 0.0161
RRIRFRPPRLPRPRPRPHFSPRP | -0.24
RRIRFRPPRLPRPRPRPHGKPRP | -0.0579
RRIRFRPPRLPRPRPRPHKTPRP | -0.0597
RRIRFRPPRLPRPRPRPHLSPRP | -0.219
RRIRFRPPRLPRPRPRPHNPPRP | -0.288
RRIRFRPPRLPRPRPRPHPFPRP | -0.105
RRIRFRPPRLPRPRPRPHPGPRP | -0.137
RRIRFRPPRLPRPRPRPHQAPRP | -0.0233
RRIRFRPPRLPRPRPRPHRFPRP | -0.0456
RRIRFRPPRLPRPRPRPHSGPRP | 0.0508
RRIRFRPPRLPRPRPRPHSPPRP | -0.389
RRIRFRPPRLPRPRPRPHSYPRP | -0.0495
RRIRFRPPRLPRPRPRPHTLPRP | -0.62
RRIRFRPPRLPRPRPRPHVQPRP | -0.0901
RRIRFRPPRLPRPRPRPHWRPRP | 0.121
RRIRFRPPRLPRPRPRPHWWPRP | 0.154
RRIRFRPPRLPRPRPRPHYAPRP | -0.285

Sequence | shrunken log2 fold change
RRIRFRPPRLPRPRPRPHYMPRP | -0.737
RRIRFRPPRLPRPRPRPHYSPRP | -0.65
RRIRFRPPRLPRPRPRPIAAPRP | 0.417
RRIRFRPPRLPRPRPRPIDMPRP | -0.727
RRIRFRPPRLPRPRPRPIDNPRP | 2.36
RRIRFRPPRLPRPRPRPIEIPRP | -0.143
RRIRFRPPRLPRPRPRPIENPRP | -0.193
RRIRFRPPRLPRPRPRPIEPPRP | 0.242
RRIRFRPPRLPRPRPRPIFEPRP | -0.0328
RRIRFRPPRLPRPRPRPIFHPRP | -0.295
RRIRFRPPRLPRPRPRPIFQPRP | -0.46
RRIRFRPPRLPRPRPRPIGLPRP | -0.251
RRIRFRPPRLPRPRPRPIHAPRP | -0.0507
RRIRFRPPRLPRPRPRPIHIPRP | -0.022
RRIRFRPPRLPRPRPRPILVPRP | -0.152
RRIRFRPPRLPRPRPRPIMMPRP | -0.529
RRIRFRPPRLPRPRPRPIMRPRP | 0.0101
RRIRFRPPRLPRPRPRPINDPRP | -0.241
RRIRFRPPRLPRPRPRPIPYPRP | -0.102
RRIRFRPPRLPRPRPRPIQCPRP | -0.105
RRIRFRPPRLPRPRPRPIQGPRP | 0.0616
RRIRFRPPRLPRPRPRPIQRPRP | -0.107
RRIRFRPPRLPRPRPRPIRLPRP | 0.0615
RRIRFRPPRLPRPRPRPISFPRP | -0.0661
RRIRFRPPRLPRPRPRPISHPRP | -0.202

Sequence | shrunken log2 fold change
RRIRFRPPRLPRPRPRPISSPRP | -0.0616
RRIRFRPPRLPRPRPRPITHPRP | -0.49
RRIRFRPPRLPRPRPRPIVIPRP | -0.205
RRIRFRPPRLPRPRPRPIWFPRP | -0.129
RRIRFRPPRLPRPRPRPIWKPRP | 0.248
RRIRFRPPRLPRPRPRPIWPPRP | 0.21
RRIRFRPPRLPRPRPRPIYLPRP | -0.626
RRIRFRPPRLPRPRPRPKCFPRP | -0.108
RRIRFRPPRLPRPRPRPKENPRP | -0.222
RRIRFRPPRLPRPRPRPKFCPRP | 0.00718
RRIRFRPPRLPRPRPRPKGQPRP | 0.105
RRIRFRPPRLPRPRPRPKHCPRP | -0.0918
RRIRFRPPRLPRPRPRPKHDPRP | -0.168
RRIRFRPPRLPRPRPRPKIYPRP | -0.328
RRIRFRPPRLPRPRPRPKLGPRP | -0.0528
RRIRFRPPRLPRPRPRPKNFPRP | 0.0482
RRIRFRPPRLPRPRPRPKPFPRP | 0.0515
RRIRFRPPRLPRPRPRPKQKPRP | -0.00156
RRIRFRPPRLPRPRPRPKQSPRP | 0.328
RRIRFRPPRLPRPRPRPKRHPRP | 0.134
RRIRFRPPRLPRPRPRPKRRPRP | 0.0555
RRIRFRPPRLPRPRPRPKSLPRP | 0.0638
RRIRFRPPRLPRPRPRPKVPPRP | -0.109
RRIRFRPPRLPRPRPRPKWRPRP | 0.413
RRIRFRPPRLPRPRPRPKWVPRP | -0.193

Sequence | shrunken log2 fold change
RRIRFRPPRLPRPRPRPLCDPRP | -0.196
RRIRFRPPRLPRPRPRPLDNPRP | 0.0244
RRIRFRPPRLPRPRPRPLGDPRP | 0.4
RRIRFRPPRLPRPRPRPLGEPRP | 0.0158
RRIRFRPPRLPRPRPRPLGKPRP | -0.17
RRIRFRPPRLPRPRPRPLHDPRP | -0.107
RRIRFRPPRLPRPRPRPLHFPRP | 0.0202
RRIRFRPPRLPRPRPRPLHMPRP | -1.06
RRIRFRPPRLPRPRPRPLHTPRP | -0.262
RRIRFRPPRLPRPRPRPLIPPRP | -0.651
RRIRFRPPRLPRPRPRPLISPRP | -0.178
RRIRFRPPRLPRPRPRPLMAPRP | -0.581
RRIRFRPPRLPRPRPRPLMWPRP | 0.0935
RRIRFRPPRLPRPRPRPLNRPRP | -0.196
RRIRFRPPRLPRPRPRPLQPPRP | 0.104
RRIRFRPPRLPRPRPRPLRCPRP | 0.0723
RRIRFRPPRLPRPRPRPLSFPRP | 0.675
RRIRFRPPRLPRPRPRPLTNPRP | 0.0389
RRIRFRPPRLPRPRPRPLTQPRP | -0.155
RRIRFRPPRLPRPRPRPLVYPRP | -0.631
RRIRFRPPRLPRPRPRPLWDPRP | -0.119
RRIRFRPPRLPRPRPRPLWTPRP | -0.0265
RRIRFRPPRLPRPRPRPLYIPRP | -0.63
RRIRFRPPRLPRPRPRPLYVPRP | -0.631
RRIRFRPPRLPRPRPRPMAKPRP | -0.0311

Sequence | shrunken log2 fold change
RRIRFRPPRLPRPRPRPMAMPRP | 0.102
RRIRFRPPRLPRPRPRPMCWPRP | -0.189
RRIRFRPPRLPRPRPRPMCYPRP | -0.416
RRIRFRPPRLPRPRPRPMEPPRP | 0.039
RRIRFRPPRLPRPRPRPMFTPRP | -0.123
RRIRFRPPRLPRPRPRPMHTPRP | 0.5
RRIRFRPPRLPRPRPRPMMMPRP | -0.101
RRIRFRPPRLPRPRPRPMMYPRP | -0.104
RRIRFRPPRLPRPRPRPMNLPRP | -0.623
RRIRFRPPRLPRPRPRPMRFPRP | -0.0257
RRIRFRPPRLPRPRPRPMSDPRP | -0.103
RRIRFRPPRLPRPRPRPMVGPRP | -0.225
RRIRFRPPRLPRPRPRPMVSPRP | -0.144
RRIRFRPPRLPRPRPRPMWCPRP | 0.0155
RRIRFRPPRLPRPRPRPMWGPRP | -0.136
RRIRFRPPRLPRPRPRPMYVPRP | -1.63
RRIRFRPPRLPRPRPRPMYWPRP | 0.146
RRIRFRPPRLPRPRPRPNDAPRP | 0.186
RRIRFRPPRLPRPRPRPNDIPRP | -0.169
RRIRFRPPRLPRPRPRPNDPPRP | -0.226
RRIRFRPPRLPRPRPRPNDYPRP | -0.355
RRIRFRPPRLPRPRPRPNELPRP | -0.0316
RRIRFRPPRLPRPRPRPNEWPRP | 0.0686
RRIRFRPPRLPRPRPRPNFLPRP | -0.277
RRIRFRPPRLPRPRPRPNGNPRP | -0.377

Sequence | shrunken log2 fold change
RRIRFRPPRLPRPRPRPNIMPRP | -0.658
RRIRFRPPRLPRPRPRPNKMPRP | -0.231
RRIRFRPPRLPRPRPRPNLIPRP | -0.347
RRIRFRPPRLPRPRPRPNLRPRP | -0.0383
RRIRFRPPRLPRPRPRPNLVPRP | -0.453
RRIRFRPPRLPRPRPRPNLWPRP | 0.031
RRIRFRPPRLPRPRPRPNNKPRP | -0.646
RRIRFRPPRLPRPRPRPNNPPRP | -0.625
RRIRFRPPRLPRPRPRPNNVPRP | -0.179
RRIRFRPPRLPRPRPRPNPDPRP | -0.0966
RRIRFRPPRLPRPRPRPNPFPRP | 0.0605
RRIRFRPPRLPRPRPRPNPWPRP | -0.0447
RRIRFRPPRLPRPRPRPNQDPRP | -0.361
RRIRFRPPRLPRPRPRPNQEPRP | 0.229
RRIRFRPPRLPRPRPRPNQQPRP | -0.0474
RRIRFRPPRLPRPRPRPNRWPRP | 0.0144
RRIRFRPPRLPRPRPRPNTAPRP | -0.986
RRIRFRPPRLPRPRPRPNVQPRP | -0.237
RRIRFRPPRLPRPRPRPNYKPRP | -0.735
RRIRFRPPRLPRPRPRPNYTPRP | -1.07
RRIRFRPPRLPRPRPRPPAIPRP | 0.363
RRIRFRPPRLPRPRPRPPAPPRP | 1.07
RRIRFRPPRLPRPRPRPPCCPRP | 0.0896
RRIRFRPPRLPRPRPRPPCTPRP | -0.228
RRIRFRPPRLPRPRPRPPERPRP | 0.891
